Values of other authors in article PMC8363833.

Key:
[1] = molecular target: PC1 beta-lactamase (Staphylococcus aureus) (UniProt P00807)
[2] = molecular target: TEM1 beta-lactamase (Escherichia coli) (UniProt P62593)
Chain of UniProt P62593 (P62593 24-286): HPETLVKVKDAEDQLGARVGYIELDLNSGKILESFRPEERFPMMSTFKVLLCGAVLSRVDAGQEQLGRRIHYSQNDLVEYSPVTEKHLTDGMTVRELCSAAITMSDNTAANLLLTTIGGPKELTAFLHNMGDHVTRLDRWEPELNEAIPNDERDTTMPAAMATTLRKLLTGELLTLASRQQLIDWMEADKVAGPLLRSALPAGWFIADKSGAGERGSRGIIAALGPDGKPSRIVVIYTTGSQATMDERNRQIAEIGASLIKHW

Chain of UniProt P00807 (P00807 25-281): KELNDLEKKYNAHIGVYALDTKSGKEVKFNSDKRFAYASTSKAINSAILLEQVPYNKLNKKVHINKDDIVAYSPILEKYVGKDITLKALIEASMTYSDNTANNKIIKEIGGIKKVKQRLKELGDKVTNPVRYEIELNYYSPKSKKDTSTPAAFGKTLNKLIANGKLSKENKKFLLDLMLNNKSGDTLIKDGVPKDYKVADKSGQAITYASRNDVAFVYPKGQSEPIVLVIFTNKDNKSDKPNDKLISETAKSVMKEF

For BLIP (from UniProt P35804), the Kd [1] is listed as 380 nM and the Kd [2] is listed as 1.3 nM.
